# Values of other authors in paper PMC7355470.
# Like-named read-outs stand apart in the source and are kept apart here.
# Columns and labels:
# PSGL-1 (Homo sapiens) [1] = target: PSGL-1 (Homo sapiens) (UniProt Q14242)
# ESL-1 (Mus musculus) = ESL-1 (Mus musculus) (UniProt Q61543); assay: SPR
# PSGL-1 (Homo sapiens) [2] = target: PSGL-1 (Homo sapiens) (UniProt Q14242); remark: listed apart in the source
# GlyCAM-1 = GlyCAM-1 (UniProt Q02596)
# [3] = target: PSGL-1 glycosulfopeptide N-terminal binding region peptide (Homo sapiens) (UniProt Q14242)
# [4] = target: PSGL-1 glycosulfopeptide N-terminal binding region peptide (Homo sapiens) (UniProt Q14242); remark: listed apart in the source
# [5] = target: PSGL-1 glycopeptide (non-sulfated) N-terminal binding region peptide (Homo sapiens) (UniProt Q14242)
# [6] = target: PSGL-1 glycosulfopeptide N-terminal binding region peptide (Homo sapiens) (UniProt Q14242); remark: listed apart in the source
# [7] = target: E-selectin (Homo sapiens) (UniProt P16581)
# [8] = target: P-selectin (Homo sapiens) (UniProt P16109)
# [9] = target: L-selectin (Homo sapiens) (UniProt P14151)
# [10] = target: P-selectin (Homo sapiens) (UniProt P16109); remark: listed apart in the source
# [11] = target: P-selectin (Homo sapiens) (UniProt P16109); remark: listed apart in the source
# [12] = target: P-selectin (Homo sapiens) (UniProt P16109); remark: listed apart in the source
# [13] = target: P-selectin (Homo sapiens) (UniProt P16109); remark: listed apart in the source
# PSGL-1, sequence (Q14242 42-320): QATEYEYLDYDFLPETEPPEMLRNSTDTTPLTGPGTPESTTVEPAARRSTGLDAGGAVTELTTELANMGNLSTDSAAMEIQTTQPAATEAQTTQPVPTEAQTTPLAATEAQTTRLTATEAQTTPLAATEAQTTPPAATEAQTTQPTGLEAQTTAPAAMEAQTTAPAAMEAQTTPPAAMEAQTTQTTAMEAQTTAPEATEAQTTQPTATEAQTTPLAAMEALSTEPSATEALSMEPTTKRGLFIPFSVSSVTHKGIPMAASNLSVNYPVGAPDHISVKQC
# UniProt Q61543, sequence (Q61543 28-1141): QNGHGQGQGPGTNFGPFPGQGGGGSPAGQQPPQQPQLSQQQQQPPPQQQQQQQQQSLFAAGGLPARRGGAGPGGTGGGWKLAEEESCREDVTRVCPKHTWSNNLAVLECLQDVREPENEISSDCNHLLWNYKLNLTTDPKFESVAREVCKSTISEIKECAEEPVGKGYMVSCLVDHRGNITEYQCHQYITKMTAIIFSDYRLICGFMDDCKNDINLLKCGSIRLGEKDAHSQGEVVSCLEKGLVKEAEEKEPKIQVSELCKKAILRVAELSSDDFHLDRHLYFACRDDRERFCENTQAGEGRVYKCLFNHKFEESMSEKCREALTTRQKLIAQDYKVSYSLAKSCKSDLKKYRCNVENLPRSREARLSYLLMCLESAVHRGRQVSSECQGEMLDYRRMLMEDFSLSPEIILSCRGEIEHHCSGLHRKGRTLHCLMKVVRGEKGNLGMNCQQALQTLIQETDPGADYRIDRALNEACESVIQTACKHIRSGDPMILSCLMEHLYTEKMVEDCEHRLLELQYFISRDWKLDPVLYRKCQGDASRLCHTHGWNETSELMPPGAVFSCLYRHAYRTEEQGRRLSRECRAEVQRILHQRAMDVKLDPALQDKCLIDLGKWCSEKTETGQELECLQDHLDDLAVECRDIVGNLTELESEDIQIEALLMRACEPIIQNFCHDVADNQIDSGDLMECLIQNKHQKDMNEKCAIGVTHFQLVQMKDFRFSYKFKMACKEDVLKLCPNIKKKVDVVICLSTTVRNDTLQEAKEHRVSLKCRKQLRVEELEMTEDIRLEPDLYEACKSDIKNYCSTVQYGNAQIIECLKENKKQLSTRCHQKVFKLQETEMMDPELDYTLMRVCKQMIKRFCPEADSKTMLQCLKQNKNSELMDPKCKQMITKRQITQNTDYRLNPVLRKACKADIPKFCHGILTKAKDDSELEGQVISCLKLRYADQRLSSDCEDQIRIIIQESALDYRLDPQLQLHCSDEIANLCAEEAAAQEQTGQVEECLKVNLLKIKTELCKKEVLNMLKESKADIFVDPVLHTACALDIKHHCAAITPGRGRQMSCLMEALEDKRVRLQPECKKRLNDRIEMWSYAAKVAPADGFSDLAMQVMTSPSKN
# UniProt Q02596, sequence (Q02596 20-151): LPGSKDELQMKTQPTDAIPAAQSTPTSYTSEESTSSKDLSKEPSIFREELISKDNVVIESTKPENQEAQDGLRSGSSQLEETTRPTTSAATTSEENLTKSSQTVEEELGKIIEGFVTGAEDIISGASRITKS
# PSGL-1 glycopeptide (non-sulfated), sequence (Q14242 42-320): as the sequence (Q14242 42-320) above
substance,measurement,setting,value
E-selectin (from UniProt P16581),Kd,PSGL-1 (Homo sapiens) [1],15 µM
same,Kd,ESL-1 (Mus musculus),62 µM
E-selectin (from UniProt Q00690),Kd,ESL-1 (Mus musculus),62 µM
L-selectin (from UniProt P14151),Kd,PSGL-1 (Homo sapiens) [2],5 µM
L-selectin (from UniProt P18337),Kd,GlyCAM-1,108 µM
P-selectin (from UniProt P16109),Kd,[3],10 µM
same,Kd,[4],0.65 µM
same,Kd,[5],25 µM
same,Kd,[6],6 µM
PSGL-1 (from UniProt Q14242),Kd,[7],15 µM
same,Kd,[8],0.32 µM
same,Kd,[9],5 µM
PSGL-1 glucosulfopeptide (from UniProt Q14242),Kd,[10],10 µM
same,Kd,[11],0.65 µM
same,Kd,[12],6 µM
PSGL-1 glycopeptide (non-sulfated) (from UniProt Q14242),Kd,[13],25 µM
